{"source": "patent US20070099268A1", "about": "“Chimeric HCN channels” (priority 2005, published 2007)", "molecules": {"B1": {"name": "mHCN2: mouse HCN2 hyperpolarization-activated, cyclic nucleotide-gated channel, wild type (GenBank AJ225122) (protein)", "chain": "MDARGGGGRPGDSPGTTPAPGPPPPPPPPAPPQPQPPPAPPPNPTTPSHPESADEPGPRARLCSRDSACTPGAAKGGANGECGRGEPQCSPEGPARGPKVSFSCRGAASGPSAAEEAGSEEAGPAGEPRGSQASFLQRQFGALLQPGVNKFSLRMFGSQKAVEREQERVKSAGAWIIHPYSDFRFYWDFTMLLFMVGNLIIIPVGITFFKDETTAPWIVFNVVSDTFFLMDLVLNFRTGIVIEDNTEIILDPEKIKKKYLRTWFVVDFVSSIPVDYIFLIVEKGIDSEVYKTARALRIVRFTKILSLLRLLRLSRLIRYIHQWEEIFHMTYDLASAVMRICNLISMMLLLCHWDGCLQFLVPMLQDFPSDCWVSINNMVNHSWSELYSFALFKAMSHMLCIGYGRQAPESMTDIWLTMLSMIVGATCYAMFIGHATALIQSLDSSRRQYQEKYKQVEQYMSFHKLPADFRQKIHDYYEHRYQGKMFDEDSILGELNGPLREEIVNFNCRKLVASMPLFANADPNFVTAMLTKLKFEVFQPGDYIIREGTIGKKMYFIQHGVVSVLTKGNKEMKLSDGSYFGEICLLTRGRRTASVRADTYCRLYSLSVDNFNEVLEEYPMMRRAFETVAIDRLDRIGKKNSILLHKVQHDLSSGVFNNQENAIIQEIVKYDREMVQQAELGQRVGLFPPPPPPQVTSAIATLQQAVAMSFCPQVARPLVGPLALGSPRLVRRAPPGPLPPAASPGPPAASPPAAPSSPRAPRTSPYGVPGSPATRVGPALPARRLSRASRPLSASQPSLPHGVPAPSPAASARPASSSTPRLGPAPTARTAAPSPDRRDSASPGAASGLDPLDSARSRLSSNL"}}, "key": {"[1]": {"system": "cell-free patches from Xenopus oocytes", "conditions": "cited from earlier work"}, "[2]": {"system": "Xenopus oocytes", "test": "Two-microelectrode voltage clamp of mHCN2 and mE324A expressed in Xenopus oocytes", "assay_type": "cell-based, Xenopus laevis", "procedure": "Oocytes were prepared from mature female Xenopus laevis in accordance with an approved protocol as previously described (Yu et al., 2004).\nFor expression of HCN in Xenopus oocytes, oocytes were injected with 5 ng of cRNA made from mouse wild-type mHCN2 and mutant mHCN2 (E324A) plasmids. Injected oocytes were incubated at 18° C. for 24-48 h prior to electrophysiological analysis.\nFor measurements in Xenopus oocytes, oocytes were voltage-clamped using a two-microelectrode voltage clamp technique. The extracellular recording solution (OR2) contained (in mM): NaCl, 80; KCl, 2; MgCl2, 1; and Na-HEPES, 5 (pH 7.6). For the recording of steady state activation of expressed Wt mHCN2, currents were elicited by 2-s long hyperpolarizing pulses between −30 mV and −160 mV with 10 mV increments, followed by a 1-s depolarizing pulse to +15 mV. The holding potential was −30 mV. As to the mHCN2 (E324A), currents were elicited by 3-s-long hyperpolarizing pulses between +20 mV and −130 mV with 10 mV increments, followed by a 1 second depolarizing pulse to +50 mV. The holding potential was +20 mV. To construct the current/voltage relationship for wildtype (Wt) mHCN2, the cell was held at […], the current was elicited by a 2-s hyperpolarizing voltage step to −140 mV to saturate activation, and followed by 2-s depolarizing voltage steps between […] and +50 mV in 10 mV increments. For mHCN2 (E324A), the cell was held at +20 mV, current was elicited by a 1.5-s hyperpolarizing voltage step to −110 mV to saturate activation, and then followed by 1.5-s depolarizing voltage steps between −80 mV and +50 mV in 10 mV increments for the recording of tail currents. To record the current amplitudes for Wt mHCN2, the current was evoked by applying a 3-s hyperpolarizing voltage pulse to −120 mV from a holding potential of −30 mV. For mHCN2 (E324A), the current was evoked by applying a 3-s hyperpolarizing voltage pulse to −120 mV from a holding potential of +20 mV."}}, "note": "“Also recorded” adds a separate entry of the source."}
{"molecule": "B1", "values": [{"measurement": "shift of activation curve to more positive potentials by cAMP", "setting": "[1]; binding of cAMP to the CNBD", "value": 17, "unit": "mV"}, {"measurement": "steady-state activation curve more hyperpolarized than that of HCN1", "setting": "[1]", "value": 20, "unit": "mV"}, {"measurement": "voltage at which currents saturated", "setting": "[2]", "value": "around −130 mV"}, {"measurement": "slope (s) with cAMP", "setting": "[2]; 8-Br-cAMP 1 mM", "value": 9.5, "unit": "mV"}, {"measurement": "Vh with cAMP", "setting": "[2]; 8-Br-cAMP 1 mM extracellular", "value": "−84.9", "unit": "mV"}, {"measurement": "effect of Cs+ on inward current", "setting": "[2]; Cs+ 5 mM", "value": "blocked; also recorded: large inhibition"}, {"measurement": "slope (s), control", "setting": "[2]; control", "value": 13.9, "unit": "mV"}, {"measurement": "activation more negative than mE324A", "setting": "[2]; oocytes", "value": 35, "unit": "mV"}, {"measurement": "half maximal activation (Vh), control", "setting": "[2]; oocytes, control", "value": "−92.7", "unit": "mV"}, {"measurement": "induced current", "setting": "[2]; single voltage pulse to −120 mV", "value": "912.7±63.7", "unit": "nA"}]}
